Data from IntAct's records for PubMed 31515488.

B1: Cyclin-dependent kinase 4 (Homo sapiens), P11802 (parent)
chain: MATSRYEPVAEIGVGAYGTVYKARDPHSGHFVALKSVRVPNGGGGGGGLPISTVREVALLRRLEAFEHPNVVRLMDVCATSRTDREIKVTLVFEHVDQDLRTYLDKAPPPGLPAETIKDLMRQFLRGLDFLHANCIVHRDLKPENILVTSGGTVKLADFGLARIYSYQMALTPVVVTLWYRAPEVLLQSTYATPVDMWSVGCIFAEMFRRKPLFCGNSEADQLGKIFDLIGLPPEDDWPRDVSLPRGAFPPRGPRPVQSVVPEMEESGAQLLLEMLTFNPHKRISAFRALQHSYLHKDEGNPE
partner: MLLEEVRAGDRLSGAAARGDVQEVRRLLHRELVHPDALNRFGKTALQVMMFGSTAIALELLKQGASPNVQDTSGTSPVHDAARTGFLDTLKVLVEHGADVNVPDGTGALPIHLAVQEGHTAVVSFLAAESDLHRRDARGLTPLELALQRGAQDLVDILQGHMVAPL
B2: Synaptotagmin-like protein 5 (Homo sapiens), Q8TDW5 (parent)
chain: MSKNSEFINLSFLLDHEKEMILGVLKRDEYLKKVEDKRIRKLKNELLEAKRRSGKTQQEASRVCVHCHRNLGLIFDRGDPCQACSLRVCRECRVAGPNGSWKCTVCDKIAQLRIITGEWFFEEKAKRFKQVNVLGTDVVRQSILRRSPGAEEVQSQEQTRQDAEKSDTSPVAGKKASHDGPKRKGFLLSKFRSATRGEIITPKTDTGRSYSLDLDGQHFRSLKSPPGSDRGSTGSSDLNDQEPGPRTPKSSRSNGVTPGTQSSPAPSTRTVTSVISREYGFENSMDLAAIEGTSQELTKSHRRNTSGTPSIAVSGTSLSSDQSRSELDLSESFTEDSEDTVSIRSKSVPGALDKDSLEETEESIDALVSSQLSTNTHRLASGLSTTSLNSMMSVYSETGDYGNVKVSGEILLHISYCYKTGGLYIFVKNCRNLAIGDEKKQRTDAYVKSYLLPDKSRNNKRKTKIRTGTNPEFNETLKYTISHTQLETRTLQLSVWHYDRFGRNSFLGEVEIPFDSWNFENPTDEWFVLQPKVEFAPDIGLQYKGELTVVLRYIPPEENLMLPPEQLQGNKTFKKGKKKESPVISGGILEVFIKEAKNLTAVKSGGTSDSFVKGYLLPDDSKATKHKTLVIKKSVNPQWNHTFMFSGIHPQDIKNVCLELTIWDKEAFSSNIFLGGVRLNSGSGVSHGKNVDWMDSQGEEQRLWQKMANNPGTPFEGVLMLRSSMGKCRL
B3: Tuftelin-interacting protein 11 (Homo sapiens), Q9UBB9 (parent)
chain: MSLSHLYRDGEGRIDDDDDERENFEITDWDLQNEFNPNRQRHWQTKEEATYGVWAERDSDDERPSFGGKRARDYSAPVNFISAGLKKGAAEEAELEDSDDEEKPVKQDDFPKDFGPRKLKTGGNFKPSQKGFAGGTKSFMDFGSWERHTKGIGQKLLQKMGYVPGRGLGKNAQGIINPIEAKQRKGKGAVGAYGSERTTQSMQDFPVVDSEEEAEEEFQKELSQWRKDPSGSKKKPKYSYKTVEELKAKGRISKKLTAPQKELSQVKVIDMTGREQKVYYSYSQISHKHNVPDDGLPLQSQQLPQSGKEAKAPGFALPELEHNLQLLIDLTEQEIIQNDRQLQYERDMVVNLFHELEKMTEVLDHEERVISNLSKVLEMVEECERRMQPDCSNPLTLDECARIFETLQDKYYEEYRMSDRVDLAVAIVYPLMKEYFKEWDPLKDCTYGTEIISKWKSLLENDQLLSHGGQDLSADAFHRLIWEVWMPFVRNIVTQWQPRNCDPMVDFLDSWVHIIPVWILDNILDQLIFPKLQKEVENWNPLTDTVPIHSWIHPWLPLMQARLEPLYSPIRSKLSSALQKWHPSDSSAKLILQPWKDVFTPGSWEAFMVKNIVPKLGMCLGELVINPHQQHMDAFYWVIDWEGMISVSSLVGLLEKHFFPKWLQVLCSWLSNSPNYEEITKWYLGWKSMFSDQVLAHPSVKDKFNEALDIMNRAVSSNVGAYMQPGARENIAYLTHTERRKDFQYEAMQERREAENMAQRGIGVAASSVPMNFKDLIETKAEEHNIVFMPVIGKRHEGKQLYTFGRIVIYIDRGVVFVQGEKTWVPTSLQSLIDMAK
partner: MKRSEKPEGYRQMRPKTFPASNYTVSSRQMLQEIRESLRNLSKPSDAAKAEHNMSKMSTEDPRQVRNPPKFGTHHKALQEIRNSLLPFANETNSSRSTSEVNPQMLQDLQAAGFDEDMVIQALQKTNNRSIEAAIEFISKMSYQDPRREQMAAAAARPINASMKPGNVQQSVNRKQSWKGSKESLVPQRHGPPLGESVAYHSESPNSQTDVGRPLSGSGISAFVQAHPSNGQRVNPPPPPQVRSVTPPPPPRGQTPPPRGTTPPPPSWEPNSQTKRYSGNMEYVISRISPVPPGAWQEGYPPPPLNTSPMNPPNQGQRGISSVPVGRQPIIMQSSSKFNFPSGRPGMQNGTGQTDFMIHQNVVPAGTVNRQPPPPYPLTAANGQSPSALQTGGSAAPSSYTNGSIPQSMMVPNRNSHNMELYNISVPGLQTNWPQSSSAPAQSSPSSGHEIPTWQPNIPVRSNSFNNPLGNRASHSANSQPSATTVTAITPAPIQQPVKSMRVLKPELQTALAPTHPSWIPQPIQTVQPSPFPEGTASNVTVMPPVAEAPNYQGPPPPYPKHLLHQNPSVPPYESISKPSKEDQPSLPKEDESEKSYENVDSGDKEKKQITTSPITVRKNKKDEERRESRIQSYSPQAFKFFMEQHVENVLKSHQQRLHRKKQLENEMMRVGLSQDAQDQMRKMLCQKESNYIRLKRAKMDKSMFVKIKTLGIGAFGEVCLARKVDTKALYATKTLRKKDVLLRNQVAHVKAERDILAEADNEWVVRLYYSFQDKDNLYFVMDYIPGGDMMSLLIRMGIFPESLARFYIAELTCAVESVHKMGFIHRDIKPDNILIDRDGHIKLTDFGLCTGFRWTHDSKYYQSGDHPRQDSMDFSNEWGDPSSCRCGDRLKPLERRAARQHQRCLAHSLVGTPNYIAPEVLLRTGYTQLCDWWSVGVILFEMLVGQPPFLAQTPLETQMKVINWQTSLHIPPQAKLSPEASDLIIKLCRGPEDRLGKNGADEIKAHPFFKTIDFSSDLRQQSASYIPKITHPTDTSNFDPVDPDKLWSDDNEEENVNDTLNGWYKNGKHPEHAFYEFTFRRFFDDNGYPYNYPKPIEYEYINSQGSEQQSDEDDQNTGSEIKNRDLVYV
B4: Glutathione S-transferase omega-2 (Homo sapiens), Q9H4Y5 (parent)
chain: MSGDATRTLGKGSQPPGPVPEGLIRIYSMRFCPYSHRTRLVLKAKDIRHEVVNINLRNKPEWYYTKHPFGHIPVLETSQCQLIYESVIACEYLDDAYPGRKLFPYDPYERARQKMLLELFCKVPHLTKECLVALRCGRECTNLKAALRQEFSNLEEILEYQNTTFFGGTCISMIDYLLWPWFERLDVYGILDCVSHTPALRLWISAMKWDPTVCALLMDKSIFQGFLNLYFQNNPNAFDFGLC
B5: Protein LDOC1 (Homo sapiens), O95751 (parent)
chain: MVDELVLLLHALLMRHRALSIENSQLMEQLRLLVCERASLLRQVRPPSCPVPFPETFNGESSRLPEFIVQTASYMLVNENRFCNDAMKVAFLISLLTGEAEEWVVPYIEMDSPILGDYRAFLDEMKQCFGWDDDEDDDDEEEEDDY
partner: B3 partner
B6: Protein LDOC1 (Homo sapiens), O95751 (parent)
chain: B5 chain
partner: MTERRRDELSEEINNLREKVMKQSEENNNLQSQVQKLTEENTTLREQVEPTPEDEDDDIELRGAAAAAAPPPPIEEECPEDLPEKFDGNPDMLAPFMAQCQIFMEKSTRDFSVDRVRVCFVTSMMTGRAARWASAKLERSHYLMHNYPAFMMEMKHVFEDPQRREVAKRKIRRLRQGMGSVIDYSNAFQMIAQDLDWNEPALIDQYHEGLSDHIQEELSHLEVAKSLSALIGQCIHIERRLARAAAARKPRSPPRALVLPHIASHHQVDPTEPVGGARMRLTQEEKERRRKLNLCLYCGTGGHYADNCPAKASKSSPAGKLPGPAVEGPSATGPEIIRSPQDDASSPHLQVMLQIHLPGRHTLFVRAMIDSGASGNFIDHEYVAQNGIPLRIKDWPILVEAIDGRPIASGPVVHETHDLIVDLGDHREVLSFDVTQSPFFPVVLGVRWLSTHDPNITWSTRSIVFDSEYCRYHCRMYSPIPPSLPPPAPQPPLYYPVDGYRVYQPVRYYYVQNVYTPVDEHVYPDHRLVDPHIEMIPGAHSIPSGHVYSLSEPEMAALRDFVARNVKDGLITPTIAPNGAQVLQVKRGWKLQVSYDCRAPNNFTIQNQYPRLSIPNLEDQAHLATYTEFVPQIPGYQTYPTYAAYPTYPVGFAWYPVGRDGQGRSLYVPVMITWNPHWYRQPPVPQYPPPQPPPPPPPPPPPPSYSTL
B7: Myotubularin-related protein 9 (Homo sapiens), Q96QG7 (parent)
chain: MEFAELIKTPRVDNVVLHRPFYPAVEGTLCLTGHHLILSSRQDNTEELWLLHSNIDAIDKRFVGSLGTIIIKCKDFRIIQLDIPGMEECLNIASSIEALSTLDSITLMYPFFYRPMFEVIEDGWHSFLPEQEFELYSSATSEWRLSYVNKEFAVCPSYPPIVTVPKSIDDEALRKVATFRHGGRFPVLSYYHKKNGMVIMRSGQPLTGTNGRRCKEDEKLINATLRAGKRGYIIDTRSLNVAQQTRAKGGGFEQEAHYPQWRRIHKSIERYHILQESLIKLVEACNDQTHNMDRWLSKLEASNWLTHIKEILTTACLAAQCIDREGASILIHGTEGTDSTLQVTSLAQIILEPRSRTIRGFEALIEREWLQAGHPFQQRCAQSAYCNTKQKWEAPVFLLFLDCVWQILRQFPCSFEFNENFLIMLFEHAYASQFGTFLGNNESERCKLKLQQKTMSLWSWVNQPSELSKFTNPLFEANNLVIWPSVAPQSLPLWEGIFLRWNRSSKYLDEAYEEMVNIIEYNKELQAKVNILRRQLAELETEDGMQESP
partner: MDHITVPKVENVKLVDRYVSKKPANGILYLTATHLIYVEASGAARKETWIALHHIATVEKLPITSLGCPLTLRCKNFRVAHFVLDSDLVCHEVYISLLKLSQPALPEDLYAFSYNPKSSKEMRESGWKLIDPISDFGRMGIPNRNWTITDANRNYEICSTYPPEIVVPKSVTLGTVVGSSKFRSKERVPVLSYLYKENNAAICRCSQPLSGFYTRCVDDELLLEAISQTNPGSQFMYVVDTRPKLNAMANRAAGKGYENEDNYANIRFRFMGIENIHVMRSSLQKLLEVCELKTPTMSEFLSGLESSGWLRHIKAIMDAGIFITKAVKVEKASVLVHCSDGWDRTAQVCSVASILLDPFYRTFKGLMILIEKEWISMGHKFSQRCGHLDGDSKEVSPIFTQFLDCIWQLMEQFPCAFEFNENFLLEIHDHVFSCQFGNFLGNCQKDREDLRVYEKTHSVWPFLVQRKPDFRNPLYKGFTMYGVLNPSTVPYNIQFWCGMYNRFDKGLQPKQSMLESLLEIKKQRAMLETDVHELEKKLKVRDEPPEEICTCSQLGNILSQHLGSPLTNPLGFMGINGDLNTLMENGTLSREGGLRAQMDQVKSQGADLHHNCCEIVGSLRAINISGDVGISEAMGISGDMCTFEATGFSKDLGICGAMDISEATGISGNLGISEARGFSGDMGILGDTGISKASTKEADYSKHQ

Variants of: B1
Settings: with cdn2d_human CDKN2D
In the case of S52N, the “effect of a mutation on the interaction” value is reported as “with no effect”.

Variants of: B2
Settings: with cep70_human CEP70, Q8NHQ1
cep70_human CEP70, Q8NHQ1, sequence (Q8NHQ1 whole entry): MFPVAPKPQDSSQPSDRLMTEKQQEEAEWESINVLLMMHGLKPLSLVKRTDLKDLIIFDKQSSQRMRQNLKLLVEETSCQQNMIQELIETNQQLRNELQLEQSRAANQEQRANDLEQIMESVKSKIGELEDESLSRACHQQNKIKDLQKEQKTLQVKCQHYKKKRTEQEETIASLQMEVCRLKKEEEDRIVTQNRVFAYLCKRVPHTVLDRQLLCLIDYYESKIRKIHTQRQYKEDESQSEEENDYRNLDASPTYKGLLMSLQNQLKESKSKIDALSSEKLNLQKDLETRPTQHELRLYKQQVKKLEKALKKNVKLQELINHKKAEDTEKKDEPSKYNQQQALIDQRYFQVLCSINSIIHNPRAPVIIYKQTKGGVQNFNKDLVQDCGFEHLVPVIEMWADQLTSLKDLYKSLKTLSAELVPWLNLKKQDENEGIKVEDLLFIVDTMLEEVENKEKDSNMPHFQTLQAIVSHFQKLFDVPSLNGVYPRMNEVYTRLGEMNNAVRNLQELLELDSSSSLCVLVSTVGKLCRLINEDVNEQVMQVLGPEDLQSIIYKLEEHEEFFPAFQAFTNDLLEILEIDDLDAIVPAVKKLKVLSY
With D400N the “effect of a mutation on the interaction” value was “with no effect”. With S369P the “effect of a mutation on the interaction” value was “with no effect”. With R160H the “effect of a mutation on the interaction” value was “with no effect”.

Variants of: B3
Settings: with lats1_human LATS1, O95835
For S688L, the “effect of a mutation on the interaction” value was “with no effect”. For R8Q, the “effect of a mutation on the interaction” value was “with no effect”.

Variants of: B4
Settings: with ap2a_human TFAP2A
For N142D, the “effect of a mutation on the interaction” value was “with no effect”.

Variants of: B5
Settings: with lats1_human LATS1, O95835
For L12H, the “effect of a mutation on the interaction” value was “disrupting interaction strength”.

Variants of: B6
Settings: with peg10_human PEG10, Q86TG7
With L12H the “effect of a mutation on the interaction” value was “with no effect”.

Variants of: B7
Settings: with mtmr8_human MTMR8, Q96EF0
With S126C the “effect of a mutation on the interaction” value was “with no effect”.

Variants of: B7
Settings: with mtmr8_human MTMR8, Q96EF0
Remark: another data set of the same source
For F127I, the “effect of a mutation on the interaction” value was “with no effect”.
